Laboratory results taken from publication PMC12269619.

What was measured:
[1] = biological target: Biotinylated junctional peptide NPDP19 (Plasmodium falciparum (clone 3D7)) (UniProt Q7K740); experiment: BLI
PfCSPm [2] = experiment: BLI; KD1
PfCSPm [3] = experiment: BLI; KD2, second site

## CIS43 mature
[1]
  Kd: 8.6 nM
PfCSPm [2]
  Kd: 45.2 nM
PfCSPm [3]
  Kd: 1300 nM
